The target of experiment [1] is TSH receptor (full length human TSHR) coated on tubes (human) (UniProt P16473). Description: 125I-TSH binding inhibition, TSHR coated tubes; 0.5 units/L, in serum.
The target is the same in experiment [2]. The experiment is described as follows: 125I-TSH binding inhibition, TSHR coated tubes; 1.0 units/L, in serum.
Experiment [3] shares this target. Description: 125I-TSH binding inhibition, TSHR coated tubes; 2.0 units/L, in serum.
Experiment [4] has the same target. The experiment is described as follows: 125I-TSH binding inhibition, TSHR coated tubes; 4.0 units/L, in serum.
Experiment [5] has the same target. The experiment is described as follows: 125I-TSH binding inhibition, TSHR coated tubes; 8.0 units/L, in serum.
Experiment [6] has the same target. The experiment is described as follows: 125I-TSH binding inhibition, TSHR coated tubes; 0.25 units/L, in serum.
For experiment [7] the target is unchanged. The experiment is described as follows: 125I-TSH binding inhibition, TSHR coated tubes; 40.0 units/L, in serum.
Experiment [8] has the same target. The experiment is described as follows: 125I-TSH binding inhibition, TSHR coated tubes; 0.125 units/L, in serum.
For experiment [9] the target is unchanged. The experiment is described as follows: 125I-TSH binding inhibition, TSHR coated tubes; 0.5 units/L, in assay buffer.
Experiment [10] has the same target. The experiment is described as follows: 125I-TSH binding inhibition, TSHR coated tubes; 1.0 units/L, in assay buffer.
For experiment [11] the target is unchanged. The experiment is described as follows: 125I-TSH binding inhibition, TSHR coated tubes; 2.0 units/L, in assay buffer.
The target is the same in experiment [12]. The experiment is described as follows: 125I-TSH binding inhibition, TSHR coated tubes; 4.0 units/L, in assay buffer.
Experiment [13] has the same target. The experiment is described as follows: 125I-TSH binding inhibition, TSHR coated tubes; 8.0 units/L, in assay buffer.
Experiment [14] has the same target. The experiment is described as follows: 125I-TSH binding inhibition, TSHR coated tubes; 0.25 units/L, in assay buffer.
For experiment [15] the target is unchanged. Description: 125I-TSH binding inhibition, TSHR coated tubes; 40.0 units/L, in assay buffer.
The target is the same in experiment [16]. The experiment is described as follows: 125I-TSH binding inhibition, TSHR coated tubes; 0.125 units/L, in assay buffer.
Experiment [17] has the same target. The experiment is described as follows: 125I-TSH binding inhibition, TSHR coated tubes; 1 unit/L in serum.
Experiment [18] has the same target. Description: 125I-TSH binding inhibition, TSHR coated tubes; 2 units/L in serum.
Experiment [19] has the same target. Description: 125I-TSH binding inhibition, TSHR coated tubes; 4 units/L in serum.
The target is the same in experiment [20]. The experiment is described as follows: 125I-TSH binding inhibition, TSHR coated tubes; 8 units/L in serum.
Experiment [21] has the same target. Description: 125I-TSH binding inhibition, TSHR coated tubes; 40 units/L in serum.
Experiment [22] shares this target. The experiment is described as follows: 125I-TSH binding inhibition, TSHR coated tubes; 0.5 units/L in serum.
Experiment [23] shares this target. The experiment is described as follows: 125I-TSH binding inhibition, TSHR coated tubes; 0.25 units/L in serum.
The target is the same in experiment [24]. The experiment is described as follows: 125I-TSH binding inhibition, TSHR coated tubes; 0.125 units/L in serum.
For experiment [25] the target is unchanged. Description: 125I-TSH binding inhibition, TSHR coated tubes; 1 unit/L in assay buffer.
The target is the same in experiment [26]. The experiment is described as follows: 125I-TSH binding inhibition, TSHR coated tubes; 2 units/L in assay buffer.
For experiment [27] the target is unchanged. The experiment is described as follows: 125I-TSH binding inhibition, TSHR coated tubes; 4 units/L in assay buffer.
For experiment [28] the target is unchanged. The experiment is described as follows: 125I-TSH binding inhibition, TSHR coated tubes; 8 units/L in assay buffer.
The target is the same in experiment [29]. The experiment is described as follows: 125I-TSH binding inhibition, TSHR coated tubes; 40 units/L in assay buffer.
The target is the same in experiment [30]. The experiment is described as follows: 125I-TSH binding inhibition, TSHR coated tubes; 0.5 units/L in assay buffer.
Experiment [31] has the same target. Description: 125I-TSH binding inhibition, TSHR coated tubes; 0.25 units/L in assay buffer.
For experiment [32] the target is unchanged. Description: 125I-TSH binding inhibition, TSHR coated tubes; 0.125 units/L in assay buffer.
Experiment [33] has the same target. The experiment is described as follows: 125I-TSH binding to TSHR coated tubes, in HBD pool.
Experiment [34] shares this target. Description: 125I-TSH binding to TSHR coated tubes, in assay buffer.
Experiment [35] addresses T1, TSHR260 (human, UniProt P16473 22-260).
T1 construct: Expressed in insect cells; coated on tubes or wells by way of a mouse TSHR MAb (14C4 F(ab')2 in the stability ELISA); also called TSHR fragment of amino acids 22-260
Description: ELISA on 14C4 F(ab')2 captured preparation; untreated TSHR260. Background: ELISA stands for enzyme-linked immunosorbent assay.

Experiment [36] concerns the target TSHR260-alkaline phosphatase (human). Description: ELISA on 14C4 F(ab')2 captured preparation; untreated TSHR260-AP.
The target of experiment [37] is TSHR LRD C-CAP (human) (UniProt P16473). Description: ELISA on 14C4 F(ab')2 captured preparation; untreated TSHR LRD C-CAP.
The target of experiment [38] is T1, TSHR260. The experiment is described as follows: ELISA on 14C4 F(ab')2 captured preparation; TSHR260 kept 24 hours at room temperature.
Experiment [39] deals with T1, TSHR260. The experiment is described as follows: ELISA on 14C4 F(ab')2 captured preparation; TSHR260 kept 48 hours at room temperature.
Experiment [40] has as its target TSHR260-alkaline phosphatase (human). The experiment is described as follows: ELISA on 14C4 F(ab')2 captured preparation; TSHR260-AP kept 24 hours at room temperature.
Experiment [41] shares this target. The experiment is described as follows: ELISA on 14C4 F(ab')2 captured preparation; TSHR260-AP kept 48 hours at room temperature.
Experiment [42] deals with full length human TSHR, detergent-solubilised, coated on tubes or ELISA plate wells (human) (UniProt P16473). The experiment is described as follows: ELISA on 14C4 F(ab')2 captured preparation; preparation kept 24 hours at room temperature.
For experiment [43] the target is unchanged. Description: ELISA on 14C4 F(ab')2 captured preparation; preparation kept 48 hours at room temperature.
The target in experiment [44] is TSHR LRD C-CAP (human) (UniProt P16473). Description: ELISA on 14C4 F(ab')2 captured preparation; TSHR LRD C-CAP kept 24 hours at room temperature.
The target is the same in experiment [45]. The experiment is described as follows: ELISA on 14C4 F(ab')2 captured preparation; TSHR LRD C-CAP kept 48 hours at room temperature.
The target in experiment [46] is full length human TSHR, detergent-solubilised, coated on tubes or ELISA plate wells (human) (UniProt P16473). Description: ELISA: TSHR preparation captured on 14C4 F(ab')2 coated wells, M22 Fab-peroxidase binding; preparation stored at -80 C (untreated).
For experiment [47], the target named is T2, human TSH receptor, full length, detergent-solubilised, coated on tubes or ELISA plate wells (human, UniProt P16473 22-764).
T2 construct: Full length recombinant receptor expressed in CHO cells, solubilised and coated via a C-terminal antibody; also called wild type TSHR; full length TSHR
The experiment is described as follows: TSHR binding affinity (summary table; Scatchard analysis, TSHR coated tubes).

On to WHO reference preparation NIBSC 90/672, for which the Inhibition of binding (%) in experiment [1] amounted to 5.6%; in experiment [2] it was 8.1%; in experiment [3], 18.2%; in experiment [4], 34.8%; in experiment [5] it was 65.3%; in experiment [6], 0%. Also, the Inhibition of binding (%) in [7] worked out at 90.9%; in experiment [8], 0%; in experiment [9], 3.1%; in experiment [10] it was 14%; in [11] it was 26.2%; in [12], 49%. Moreover, the Inhibition of binding (%) in experiment [13] stood at 62.7%; in experiment [14] it was 0%; in [15], 91%; in experiment [16] it was 0%.
Consider “Thyroid Stimulating Autoantibody reference preparation NIBSC 90/672”, for which the Inhibition of binding (%) is 15.5% in [17]; 22.9% in [18]; 49.2% in experiment [19]; 63.2% in experiment [20]; 90% in [21]; 9.3% in [22]. Also, the Inhibition of binding (%) in experiment [23] turned out to be 3.5%; in experiment [24], 2.4%; in experiment [25], 14.1%; in experiment [26], 27.2%; in experiment [27], 53.3%; in experiment [28], 62.2%. In addition, the Inhibition of binding (%) in experiment [29] was found to be 90.9%; in experiment [30], 2.8%; in [31] it was 0.9%; in experiment [32] it was 5.1%.
Regarding 125I-labelled TSH (ligand), the values for the % binding in experiment [33] and in experiment [34] were 12.9% and 12.6%, respectively.
In the case of M22 Fab-peroxidase conjugate, the OD450 nm was 2.29 OD450 nm in [35]; 2.4 OD450 nm in experiment [36]; 1.83 OD450 nm in experiment [37]; 1.84 OD450 nm in experiment [38]; 1.68 OD450 nm in [39]; 2.11 OD450 nm in [40]. Moreover, the OD450 nm in experiment [41] turned out to be 1.98 OD450 nm; in [42] it was 0.268 OD450 nm; in [43], 0.126 OD450 nm; in experiment [44], 1.16 OD450 nm; in [45], 1.16 OD450 nm; in [46], 1.75 OD450 nm.

B1: K1-70 IgG (human monoclonal TSHR autoantibody with blocking activity) (antibody, V domains shown)
VH: EVQLVQSGAEVKKPGQSLKISCKASGYSLTDNWIGWVRQKPGKGLEWMGIIYPGDSDTRYSPSFQGQVTISADKSINTAYLQWSSLKASDTAIYYCVGLDWNYNPLRYWGPGTLVTVSS
VL: QSVLTQPPSVSAAPGQKVTISCSGSSSDIGSNYVSWYQQFPGTAPKLLIYDNNKRPSAIPDRFSGSKSGTSATLGITGLQTGDEADYYCGTWDSRLGIAVFGGGTQLTVLG
notes: IgG1 lambda purified from hetero-hybridoma supernatant
B1 gave a Ka in experiment [47] of 3.9e+10 M⁻¹.

(Values after patent US20110300138A1 (published 2011).)
